From patent US20210030885A1, “HUMANIZED ANTI-LIV1 ANTIBODIES FOR THE TREATMENT OF CANCER” (priority 2019, published 2021)
Marks after values point to notes of the source that are not given here.

What was measured:
Assay type in all cases: in vivo, human
[1] = Drug to antibody ratio (DAR) of ADC in blood samples after LV administration, Q3W; settings: Q3W dosing
Procedure: In order to investigate pharmacokinetics of ADC species with different DARs under the previous tri-weekly dosing scheme (Q3W) versus a weekly dosing scheme (Q1W), LV was administered to subjects accordingly, and the pharmacokinetics of ADC species with different DARs were simulated.
Breast cancer patients were treated with ladiratuzumab vedotin (LV).
LV was administered by 30 minute intravenous (IV) infusion under a Q3W interval.
Following administration of LV, subject blood samples were collected at pre-dose, end of infusion, 2 hrs, 4 hrs, 8 hrs, 1 day, 3 days, 7 days, and 14 days after administration. The concentrations of the antibody-drug conjugate (ADC) was measured, and the drug to antibody ratio (DAR) of each species (DAR8, DAR7, DAR6, DARS, DAR4, DAR3, DAR2, DAR1 and DAR0) of the ADCs collected in blood samples was also analyzed. […] Using computer-assisted modeling, where decrease in average DAR was established previously, i.e. from 4 (on Day 0) to 1 (on Day 7) under Q3W, the pharmacokinetics were simulated for (i) ADCs with DARs≥4, or (ii) ADCs with DAR of between 2 and 3 (FIGS. 3B, C respectively) when LV was administered at a dose of 1 mg/kg on Day 1 of each 7-day cycle (Q1W) or at a dose of 3 mg/kg on Day 1 of each 21-day cycle (Q3W). […]

[2] = Observed pharmacokinetics of ADC and MMAE after LV Q1W or Q3W dosing
Procedure: To investigate if fractionated dosing could increase treatment efficacy or reduce the number and severity of adverse events, various fractionated dosing schemes of ladiratuzumab vedotin (LV) were tested to measure for changes in Cmax, Ctrough, and AUC at similar total dose intensities and exposure.
Breast cancer patients were treated with (LV).
LV was administered as 30-minute IV infusion at the indicated interval. […]

patients = test: Adverse event incidence with previous LV dosing regimen 2.5 mg/kg Q3W; settings: n = 65
[3] = MMAE, LV 1.0 mg/kg weekly (obs.), n = 4, geometric mean (CV %)
[4] = MMAE, LV 2.5 mg/kg q3wk (obs.), geometric mean (CV %)

With ladiratuzumab vedotin [LV] the “DAR of ADCs in blood” value ([1]; Day 0) was “about 4”, the “DAR of ADCs in blood” value ([1]; Day 7) was “about 1” and the AUC0-21 ([2]; ADC, 1.0 mg/kg weekly (obs.), n = 4, estimated from observed AUC0-7 d of Cycle 1 Dose #1 and Dose #3) was 215.4* μg*day/mL. For the same substance, the Cmax ([2]; ADC, 1.0 mg/kg weekly (obs.), n = 4, geo. mean (CV %)) was 31.4 (25) μg/mL, the Ctrough ([2]; ADC, 1.25 mg/kg weekly (obs.), n = 1) was 7.64 µg/mL and the AUC0-21 ([2]; ADC, 1.25 mg/kg weekly (obs.), n = 5, estimated from observed AUC0-7 d of Cycle 1 Dose #1 and Dose #3) was 266.9* μg*day/mL. The Cmax ([2]; ADC, 1.25 mg/kg weekly (obs.), n = 5, geo. mean (CV %)) was 43.3 (31) μg/mL, the AUC0-21 ([2]; ADC, 2.5 mg/kg q3wk (obs.), n = 97, geo. mean (CV %)) was 210 (27) μg*day/mL and the Cmax ([2]; ADC, 2.5 mg/kg q3wk (obs.), n = 131, geo. mean (CV %)) was 85 (27) μg/mL. For the same substance, the AUC0-21 ([2]; MMAE, LV 1.0 mg/kg weekly (obs.), n = 4, estimated from observed AUC0-7 d of Cycle 1 Dose #1 and Dose #3) was 29.7* μg*day/mL, the Cmax [2, 3] was 2.1 (61) μg/mL and the Ctrough [2, 3] was 1.26(75) μg/mL. For the same substance, the Ctrough ([2]; MMAE, LV 1.25 mg/kg weekly (obs.), n = 2, geometric mean (CV %)) was 2.95(160) μg/mL, the AUC0-21 ([2]; MMAE, LV 1.25 mg/kg weekly (obs.), n = 5, estimated from observed AUC0-7 d of Cycle 1 Dose #1 and Dose #3) was 53.6* μg*day/mL and the Cmax ([2]; MMAE, LV 1.25 mg/kg weekly (obs.), n = 5, geometric mean (CV %)) was 3.74 (68) μg/mL. For the same substance, the AUC0-21 [2, 4] was 50.3 (61) μg*day/mL, the Cmax [2, 4] was 5.55 (56) μg/mL and the Ctrough [2, 4] was 0.34 (80) μg/mL. The “Adverse event incidence: Abdominal Pain” value (patients) was 18 (28%), the “Adverse event incidence: Alopecia” value (patients) was 22 (34%) and the “Adverse event incidence: Constipation” value (patients) was 32 (49%). For the same substance, the “Adverse event incidence: Decreased Appetite” value (patients) was 29 (45%), the “Adverse event incidence: Diarrhea” value (patients) was 23 (35%) and the “Adverse event incidence: Fatigue” value (patients) was 38 (59%). The “Adverse event incidence: Hypokalemia” value (patients) was 17 (26%), the “Adverse event incidence: Nausea” value (patients) was 32 (49%) and the “Adverse event incidence: Neutropenia” value (patients) was 19 (29%). For the same substance, the “Adverse event incidence: Peripheral Sensory Neuropathy” value (patients) was 21 (32%) and the “Adverse event incidence: Vomiting” value (patients) was 14 (22%).
